Test results published in paper PMC12149299 (Cell Discovery, 2025).

Columns and labels:
[1] = biological target: HIV-1 Env on TNF-α-activated ACH-2 latent HIV-1 cells (HIV-1 group M subtype B, BRU/LAI (ACH-2 …, UniProt P03377, strain)); assay: flow cytometry on cells; conditions: one partner purified
[2] = biological target: T1, HIV Env on HL2/3 cells (HIV-1 group M subtype B, HXB2 (stand-in …, UniProt P04578, strain)); assay: flow cytometry on cells; conditions: one partner purified
T1 construct: source: HL2/3 cells (NIH AIDS Program), expressing HIV Env, on the cell surface

[3] = biological target: T2, HIV-1 gp120 protein from the JRCSF.JB strain (HIV-1 group M subtype B, JRCSF (clone …, UniProt P20871, strain)); assay: ELISA; antigens (2 μg/mL) coated on 96-well plates overnight at 4 °C; antibodies serially diluted in disruption buffer, 1 h; HRP goat anti-human IgG, ABTS, 405 nm; conditions: both partners purified
[4] = biological target: HIV-1 gp120 protein from the YU2.DG strain (HIV-1 group M subtype B, YU-2 (clone …, UniProt P35961, strain)); assay: as above; conditions: both partners purified
[5] = biological target: HIV-1 gp120 protein from the BaL.01 strain (HIV-1 subtype B, BaL.01, UniProt Q2MKA9, strain); assay: as above; conditions: both partners purified
[6] = biological target: T2, HIV-1 gp120 protein from the JRCSF.JB …; assay: ELISA; conditions: both partners purified

Measured: binding result

B1: FD22 (antibody, V domains shown)
VH: QVQLSQSGGGAVQPGKSLTLSCRAYGFHLFSYVVVWVRQTPQNGLEWVAGAASGGWPQEFMNSVRGRFSISRDDYTVSLQMNALRVDDSGLYFCAQERGLHRLDGAVKFGRWFRAWGQGSQVVVTS
VL: QSALTQPASVSGSPGQSITLSCTGADNSVSWYQVVPGRAPKLLIFEVNVRPSEVSDRFSGSKSGDTASLTISRLQIEDESDYYCVTRRGDVTYLFGSGTRVSVL
notes: also called FD22-biotin
not listed: [6]
binds: all other assays above

B2: CH235.12 (antibody, V domains shown)
VH: QVRLAQYGGGVKRLGATMTLSCVASGYTFNDYYIHWVRQAPGQGFELLGYIDPANGRPDYAGALRERLSFYRDKSMETLYMDLRSLRYDDTAMYYCVRNVGTAGSLLHYDHWGSGSPVIVSS
VL: EIVLTQSPATLSASPGERVTLTCRASRSVRNNVAWYQHKGGQSPRLLIYDASTRAAGVPARFSGSASGTEFTLAISNLESEDFTVYFCLQYNNWWTFGQGTRVDIK
binds: [6]
